This is an account of results in publication PMC7050208.

This series deals with N[C@@H](CCOP(=O)(O)O)C(=O)O. Kind of series: coupled MESG/PNP phosphate release, A360. Format: biochemical, Bacillus spizizenii. The following applies: 50 mM HEPES-NaOH pH 7.5, 100 μM PLP.

The term Km denotes the substrate concentration at which the rate is half of its maximum. In general, kcat refers to the number of substrate molecules converted per active site and unit of time at saturation. For BsThrC (Bacillus spizizenii), where the note is “0.1 μM enzyme”, the Km is 329 µM and the kcat was 1.74 s⁻¹.
For the substance “RhiB (Bacillus spizizenii ATCC 6633 = JCM 2499)”, under “0.25 μM enzyme”, the Km came out at 824 µM and the kcat amounted to 0.60 s⁻¹.
